Source: publication PMC7077851, “Comparative analysis of the human serine hydrolase OVCA2 to the model serine hydrolase homolog FSH1 from S. cerevisiae” (PLoS ONE, 2020)

Columns and labels:
Assay in all cases: purified protein
Format in all cases: biochemical, Homo sapiens
purified protein [1] = substrate: CCCCCCCCCC(=O)Oc1ccc([N+](=O)[O-])cc1; conditions: PBS, 0.1 mg/mL acetylated BSA, 1% acetonitrile, 25 °C
purified protein [2] = substrate: COCCOCC(=O)OCOc1ccc2c(c1)Oc1cc(OCOC(=O)COCCOC)ccc1C21OC(=O)c2ccccc21; conditions: PBS, 0.1 mg/mL acetylated BSA, 25 °C
purified protein [3] = substrate: CCCCCCCCCCCCCC(=O)Oc1ccc([N+](=O)[O-])cc1; conditions: PBS, 0.1 mg/mL acetylated BSA, 1% acetonitrile, 25 °C
purified protein [4] = substrate: CC(=O)Oc1ccc([N+](=O)[O-])cc1; conditions: PBS, 0.1 mg/mL acetylated BSA, 1% acetonitrile, 25 °C
purified protein [5] = substrate: CCCC(=O)Oc1ccc([N+](=O)[O-])cc1; conditions: PBS, 0.1 mg/mL acetylated BSA, 1% acetonitrile, 25 °C
purified protein [6] = substrate: CCCCCCCC(=O)Oc1ccc([N+](=O)[O-])cc1; conditions: PBS, 0.1 mg/mL acetylated BSA, 1% acetonitrile, 25 °C
purified protein [7] = substrate: CCCCCCCCCCCC(=O)Oc1ccc([N+](=O)[O-])cc1; conditions: PBS, 0.1 mg/mL acetylated BSA, 1% acetonitrile, 25 °C
purified protein [8] = substrate: COCC(=O)OCOc1ccc2c(c1)Oc1cc(OCOC(=O)COC)ccc1C21OC(=O)c2ccccc21; conditions: PBS, 0.1 mg/mL acetylated BSA, 25 °C

B1: OVCA2 (Homo sapiens) (protein)
chain: MAAQRPLRVLCLAGFRQSERGFREKTGALRKALRGRAELVCLSGPHPVPDPPGPEGARSDFGSCPPEEQPRGWWFSEQEADVFSALEEPAVCRGLEESLGMVAQALNRLGPFDGLLGFSQGAALAALVCALGQAGDPRFPLPRFILLVSGFCPRGIGFKESILQRPLSLPSLHVFGDTDKVIPSQESVQLASQFPGAITLTHSGGHFIPAAAPQRQAYLKFLDQFAE
B1 gave a Km (purified protein [1]) of 3.84 ± 1.1 µM, a kcat (purified protein [1]) of 0.025 ± 0.001 s⁻¹ and a kcat/Km (purified protein [1]) of 6800 ± 1000 M⁻¹ s⁻¹. The Km (purified protein [2]) was 3.7 ± 0.8 µM, the kcat (purified protein [2]) was 0.0012 ± 0.0001 s⁻¹ and the kcat/Km (purified protein [2]) was 330 ± 70 M⁻¹ s⁻¹. The Km (purified protein [3]) was 17 ± 14 µM, the kcat (purified protein [3]) was 0.076 ± 0.01 s⁻¹ and the kcat/Km (purified protein [3]) was 4500 ± 1800 M⁻¹ s⁻¹. For the same protein, the Km (purified protein [4]) was 1400 ± 600 µM, the kcat (purified protein [4]) was 0.26 ± 0.03 s⁻¹ and the kcat/Km (purified protein [4]) was 200 ± 50 M⁻¹ s⁻¹. The Km (purified protein [5]) was 2900 ± 100 µM, the Km (purified protein [6]) was 6.1 ± 5.7 µM and the kcat (purified protein [6]) was 0.023 ± 0.005 s⁻¹. It also gave a kcat/Km (purified protein [6]) of 3800 ± 1800 M⁻¹ s⁻¹, a Km (purified protein [7]) of 29 ± 19 µM and a kcat (purified protein [7]) of 0.076 ± 0.01 s⁻¹. It also gave a kcat/Km (purified protein [7]) of 2700 ± 950 M⁻¹ s⁻¹, a Km (purified protein [8]) of 12 ± 5 µM and a kcat (purified protein [8]) of 0.0013 ± 0.0002 s⁻¹. The kcat/Km (purified protein [8]) was 100 ± 40 M⁻¹ s⁻¹.

B2: OVCA2 (Homo sapiens; D179A) (protein)
chain: MAAQRPLRVLCLAGFRQSERGFREKTGALRKALRGRAELVCLSGPHPVPDPPGPEGARSDFGSCPPEEQPRGWWFSEQEADVFSALEEPAVCRGLEESLGMVAQALNRLGPFDGLLGFSQGAALAALVCALGQAGDPRFPLPRFILLVSGFCPRGIGFKESILQRPLSLPSLHVFGDTAKVIPSQESVQLASQFPGAITLTHSGGHFIPAAAPQRQAYLKFLDQFAE
Protein B2 has a Km (purified protein [1]) of 3.2 ± 1.5 µM, a kcat (purified protein [1]) of 3.7e-05 ± 4e-06 s⁻¹ and a kcat/Km (purified protein [1]) of 11 ± 3 M⁻¹ s⁻¹. For the same protein, the Km (purified protein [3]) was 5.7 ± 1.9 µM, the kcat (purified protein [3]) was 4.6e-05 ± 4e-06 s⁻¹ and the kcat/Km (purified protein [3]) was 7.8 ± 1.4 M⁻¹ s⁻¹. The Km (purified protein [6]) was 2.0 ± 0.2 µM, the kcat/Km (purified protein [6]) was 0.5 ± 0.3 M⁻¹ s⁻¹ and the Km (purified protein [7]) was 1.1 ± 0.6 µM. For the same protein, the kcat (purified protein [7]) was 7.3e-05 ± 8e-06 s⁻¹ and the kcat/Km (purified protein [7]) was 69 ± 20 M⁻¹ s⁻¹.
